Experimental findings from article PMC12173559, “The Functional DPP4 Receptor Is an Indispensable Factor Mediating the Immune Performance of Mucosal Vaccines for Middle East Respiratory Syndrome” (Transboundary and Emerging Diseases, 2025) are described below.

This experiment has as its target T1, MERS-CoV receptor binding domain (RBD), biotinylated (MERS-CoV, UniProt K9N5Q8).
T1 construct: also called MERS-CoV RBD; MERS-CoV spike RBD
T1 sequence: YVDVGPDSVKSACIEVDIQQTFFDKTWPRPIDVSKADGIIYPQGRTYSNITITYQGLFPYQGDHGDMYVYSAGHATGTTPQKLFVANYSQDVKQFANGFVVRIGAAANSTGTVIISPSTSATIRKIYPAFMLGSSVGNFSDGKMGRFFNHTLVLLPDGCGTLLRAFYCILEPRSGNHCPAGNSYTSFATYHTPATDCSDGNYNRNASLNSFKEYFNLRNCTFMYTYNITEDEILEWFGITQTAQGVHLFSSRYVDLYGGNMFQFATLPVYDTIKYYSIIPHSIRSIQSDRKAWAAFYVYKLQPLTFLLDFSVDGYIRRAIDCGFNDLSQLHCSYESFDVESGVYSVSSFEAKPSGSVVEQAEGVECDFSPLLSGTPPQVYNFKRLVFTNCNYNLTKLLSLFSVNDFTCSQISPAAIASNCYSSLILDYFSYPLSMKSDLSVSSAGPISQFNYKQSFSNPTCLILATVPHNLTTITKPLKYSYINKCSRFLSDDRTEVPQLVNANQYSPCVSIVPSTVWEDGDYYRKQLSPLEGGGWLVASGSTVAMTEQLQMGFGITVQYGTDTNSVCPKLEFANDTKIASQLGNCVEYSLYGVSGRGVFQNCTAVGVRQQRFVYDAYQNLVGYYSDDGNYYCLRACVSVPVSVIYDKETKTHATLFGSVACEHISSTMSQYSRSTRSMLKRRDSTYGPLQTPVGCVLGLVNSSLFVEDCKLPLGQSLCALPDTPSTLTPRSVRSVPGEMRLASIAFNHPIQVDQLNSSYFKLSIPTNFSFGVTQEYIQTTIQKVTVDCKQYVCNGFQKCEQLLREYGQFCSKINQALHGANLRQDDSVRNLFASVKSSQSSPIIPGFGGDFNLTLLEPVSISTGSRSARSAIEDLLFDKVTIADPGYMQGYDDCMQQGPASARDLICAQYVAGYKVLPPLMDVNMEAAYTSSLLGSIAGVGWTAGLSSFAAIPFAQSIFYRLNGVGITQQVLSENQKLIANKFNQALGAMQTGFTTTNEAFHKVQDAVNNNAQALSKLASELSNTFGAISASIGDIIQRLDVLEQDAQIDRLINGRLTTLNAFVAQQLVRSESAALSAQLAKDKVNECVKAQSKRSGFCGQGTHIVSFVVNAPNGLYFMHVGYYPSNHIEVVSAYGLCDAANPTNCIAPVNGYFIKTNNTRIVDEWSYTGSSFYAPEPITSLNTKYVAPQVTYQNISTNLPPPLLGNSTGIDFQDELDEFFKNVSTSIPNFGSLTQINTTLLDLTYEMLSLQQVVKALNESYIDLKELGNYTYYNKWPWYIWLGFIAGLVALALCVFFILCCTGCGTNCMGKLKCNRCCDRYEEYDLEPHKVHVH
The experiment can be described thus: BLI; […] (10 µg/mL) […] (SA) biosensor for 300 s; analyte in kinetic buffer (PBST, 0.1% BSA) […], association 120 s, dissociation 180 s; […]. As to conditions: both partners purified.

B1: human DPP4 (receptor)
chain: SRKTYTLTDYLKNTYRLKLYSLRWISDHEYLYKQENNILVFNAEYGNSSVFLENSTFDEFGHSINDYSISPDGQFILLEYNYVKQWRHSYTASYDIYDLNKRQLITEERIPNNTQWVTWSPVGHKLAYVWNNDIYVKIEPNLPSYRITWTGKEDIIYNGITDWVYEEEVFSAYSALWWSPNGTFLAYAQFNDTEVPLIEYSFYSDESLQYPKTVRVPYPKAGAVNPTVKFFVVNTDSLSSVTNATSIQITAPASMLIGDHYLCDVTWATQERISLQWLRRIQNYSVMDICDYDESSGRWNCLVARQHIEMSTTGWVGRFRPSEPHFTLDGNSFYKIISNEEGYRHICYFQIDKKDCTFITKGTWEVIGIEALTSDYLYYISNEYKGMPGGRNLYKIQLSDYTKVTCLSCELNPERCQYYSVSFSKEAKYYQLRCSGPGLPLYTLHSSVNDKGLRVLEDNSALDKMLQNVQMPSKKLDFIILNETKFWYQMILPPHFDKSKKYPLLLDVYAGPCSQKADTVFRLNWATYLASTENIIVASFDGRGSGYQGDKIMHAINRRLGTFEVEDQIEAARQFSKMGFVDNKRIAIWGWSYGGYVTSMVLGSGSGVFKCGIAVAPVSRWEYYDSVYTERYMGLPTPEDNLDHYRNSTVMSRAENFKQVEYLLIHGTADDNVHFQQSAQISKALVDVGVDFQAMWYTDEDHGIASSTAHQHIYTHMSHFIKQCFSLP
As usually defined, the Kd is the equilibrium constant for the complex coming apart. High values mean weaker binding, low ones tighter binding. With B1, binding was characterised by a dissociation constant (Kd) of 55.1 nM.
